Tests used:
[1] = biological target: T1, PCSK9 (Homo sapiens, UniProt Q8NBP7); assay: Example 2 clinical study, single escalating IV doses: fasting lipids; assay type: in vivo
T1 construct: PCSK9 antagonist antibody that antagonizes circulating PCSK9; endogenous in cells; host or cells: human subjects in clinical trials (in vivo, circulating PCSK9)
Experimental: The study entailed a randomized, placebo-controlled, ascending, single dose study of L1L3. The subjects, investigator, and site personnel (except site personnel responsible for drug preparation) were blinded to treatment assignments, as was the CRO designee; while the Sponsor clinical research team was unblinded. The study was conducted in 6 planned cohorts of 8 subjects per cohort in an effort to seek a maximum tolerated dose or MTD (total of approximately 48 subjects). […] Doses were administered following an overnight fast as an intravenous infusion over 60 minutes. […] Infusions will be administered as a single infusion over 60 minutes.
Change in serum lipids (total cholesterol, LDL, HDL, Triglycerides, Non-HDL-C and Apoprotein B) were assessed.
Collection of fasting lipid profile was performed after at least a 10-hour fast (total cholesterol, LDL, HDL, Non-HDL Cholesterol, Apo B and triglycerides).

[2] = PK study, single bolus i.v. injection in cynomolgus monkeys, total antibody concentration; assay type: in vivo
[3] = Example 6 clinical study: safety and immunogenicity; assay type: in vivo, human; settings: IV every 4 weeks, stable daily statin
Experimental: Subjects were seen periodically in the clinic for safety assessments and collection of blood for safety labs, lipid profiles, PK, PD, and immunogenicity samples. Telephone contacts were made prior to each visit to remind them of the 10-hour fasting requirements, during screening and on Day 3 to assess adverse events and document the contact in the subject's source document. […] Infusion rates were carefully controlled by an infusion device per protocol. Infusions were administered as a single infusion over approximately 60 minutes.

T1 sequence (Q8NBP7 153-692): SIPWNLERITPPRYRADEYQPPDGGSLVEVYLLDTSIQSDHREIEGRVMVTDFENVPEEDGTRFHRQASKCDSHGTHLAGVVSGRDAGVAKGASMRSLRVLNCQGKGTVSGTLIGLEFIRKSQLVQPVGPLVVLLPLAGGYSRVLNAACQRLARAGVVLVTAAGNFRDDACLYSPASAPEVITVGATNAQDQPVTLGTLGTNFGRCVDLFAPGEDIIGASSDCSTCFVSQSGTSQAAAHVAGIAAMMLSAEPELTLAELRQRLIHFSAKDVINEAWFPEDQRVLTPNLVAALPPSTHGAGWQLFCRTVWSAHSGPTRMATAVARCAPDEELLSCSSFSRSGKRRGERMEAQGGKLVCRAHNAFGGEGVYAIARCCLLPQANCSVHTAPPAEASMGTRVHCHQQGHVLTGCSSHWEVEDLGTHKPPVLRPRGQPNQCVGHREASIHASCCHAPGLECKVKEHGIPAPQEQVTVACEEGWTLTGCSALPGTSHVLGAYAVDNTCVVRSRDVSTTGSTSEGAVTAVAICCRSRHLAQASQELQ
T1 sequence (Q8NBP7 31-152 partner limits assumed): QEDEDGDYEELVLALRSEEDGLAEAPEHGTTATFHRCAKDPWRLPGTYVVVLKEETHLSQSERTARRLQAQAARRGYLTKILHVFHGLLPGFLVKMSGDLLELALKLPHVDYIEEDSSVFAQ

B1: L1L3: humanized (<5% murine residues) monoclonal PCSK9 antagonist antibody that binds to secreted PCSK9; VH SEQ ID NO: 11, VL SEQ ID NO: 12 (antibody, V domains shown)
VH: QVQLVQSGAEVKKPGASVKVSCKASGYTFTSYYMHWVRQAPGQGLEWMGEISPFGGRTNYNEKFKSRVTMTRDTSTSTVYMELSSLRSEDTAVYYCARERPLYASDLWGQGTTVTVSS
VL: DIQMTQSPSSLSASVGDRVTITCRASQGISSALAWYQQKPGKAPKLLIYSASYRYTGVPSRFSGSGSGTDFTFTISSLQPEDIATYYCQQRYSLWRTFGQGTKLEIK
modifications: heavy chain variable region; light chain variable region
With B1 the “mean percentage change from baseline of fasting LDL-C” value (“mean percentage change from baseline” below) ([1]; single IV 1 mg/kg, visit day 8) was −33.33%, the “mean percentage change from baseline” value ([1]; single IV 1 mg/kg, visit day 15) was −50.50% and the “mean percentage change from baseline” value ([1]; single IV 1 mg/kg, visit day 22) was −22.40%. For the same molecule, the “mean percentage change from baseline” value ([1]; single IV 1 mg/kg, visit day 29) was −3.36%, the “mean percentage change from baseline” value ([1]; single IV 3 mg/kg, visit day 1) was 0.000% and the “mean percentage change from baseline” value ([1]; single IV 3 mg/kg, visit day 2) was −1.97%. The “mean percentage change from baseline” value ([1]; single IV 3 mg/kg, visit day 3) was −13.20%, the “mean percentage change from baseline” value ([1]; single IV 3 mg/kg, visit day 4) was −19.10% and the “mean percentage change from baseline” value ([1]; single IV 3 mg/kg, visit day 8) was −39.78%. For the same molecule, the “mean percentage change from baseline” value ([1]; single IV 3 mg/kg, visit day 15) was −57.93%, the “mean percentage change from baseline” value ([1]; single IV 3 mg/kg, visit day 22) was −65.09% and the “mean percentage change from baseline” value ([1]; single IV 3 mg/kg, visit day 29) was −64.77%. The “mean percentage change from baseline” value ([1]; single IV 3 mg/kg, visit day 43) was −27.56%, the “mean percentage change from baseline” value ([1]; single IV 6 mg/kg, visit day 1) was 0.000% and the “mean percentage change from baseline” value ([1]; single IV 6 mg/kg, visit day 2) was −1.44%. The “mean percentage change from baseline” value ([1]; single IV 6 mg/kg, visit day 3) was −9.23%, the “mean percentage change from baseline” value ([1]; single IV 6 mg/kg, visit day 4) was −18.80% and the “mean percentage change from baseline” value ([1]; single IV 6 mg/kg, visit day 8) was −43.77%. For the same molecule, the “mean percentage change from baseline” value ([1]; single IV 6 mg/kg, visit day 15) was −61.52%, the “mean percentage change from baseline” value ([1]; single IV 6 mg/kg, visit day 22) was −68.92% and the “mean percentage change from baseline” value ([1]; single IV 6 mg/kg, visit day 29) was −64.19%. The “mean percentage change from baseline” value ([1]; single IV 6 mg/kg, visit day 36) was −67.70%, the “mean percentage change from baseline” value ([1]; single IV 6 mg/kg, visit day 43) was −64.18% and the “mean percentage change from baseline” value ([1]; single IV 6 mg/kg, visit day 50) was −49.17%. For the same molecule, the “mean percentage change from baseline” value ([1]; single IV 6 mg/kg, visit day 57) was −36.12%, the “mean percentage change from baseline” value ([1]; single IV 12 mg/kg, visit day 1) was 0.000% and the “mean percentage change from baseline” value ([1]; single IV 12 mg/kg, visit day 2) was −8.26%. The “mean percentage change from baseline” value ([1]; single IV 12 mg/kg, visit day 3) was −14.05%, the “mean percentage change from baseline” value ([1]; single IV 12 mg/kg, visit day 4) was −23.23% and the “mean percentage change from baseline” value ([1]; single IV 12 mg/kg, visit day 8) was −37.96%. The “mean percentage change from baseline” value ([1]; single IV 12 mg/kg, visit day 15) was −66.25%, the “mean percentage change from baseline” value ([1]; single IV 12 mg/kg, visit day 22) was −59.79% and the “mean percentage change from baseline” value ([1]; single IV 12 mg/kg, visit day 29) was −74.67%. For the same molecule, the “mean percentage change from baseline” value ([1]; single IV 12 mg/kg, visit day 36) was −65.23%, the “mean percentage change from baseline” value ([1]; single IV 12 mg/kg, visit day 43) was −69.31% and the “mean percentage change from baseline” value ([1]; single IV 12 mg/kg, visit day 50) was −56.08%. For the same molecule, the “mean percentage change from baseline” value ([1]; single IV 12 mg/kg, visit day 57) was −63.10%, the “mean percentage change from baseline” value ([1]; single IV 18 mg/kg, visit day 1) was 0.000% and the “mean percentage change from baseline” value ([1]; single IV 18 mg/kg, visit day 2) was −11.52%. The “mean percentage change from baseline” value ([1]; single IV 18 mg/kg, visit day 3) was −22.43%, the “mean percentage change from baseline” value ([1]; single IV 18 mg/kg, visit day 4) was −34.36% and the “mean percentage change from baseline” value ([1]; single IV 18 mg/kg, visit day 8) was −43.70%. For the same molecule, the “mean percentage change from baseline” value ([1]; single IV 18 mg/kg, visit day 15) was −82.89%, the “mean percentage change from baseline” value ([1]; single IV 18 mg/kg, visit day 22) was −72.97% and the “mean percentage change from baseline” value ([1]; single IV 18 mg/kg, visit day 29) was −67.40%. For the same molecule, the “mean percentage change from baseline” value ([1]; single IV 18 mg/kg, visit day 36) was −61.47%, the “mean percentage change from baseline” value ([1]; single IV 18 mg/kg, visit day 43) was −80.21% and the “Fasting triglyceride (TGs) levels” value ([1]; single IV 0.3-18 mg/kg, baseline 173 mg/dL) was “remained unchanged”. The “High density lipoprotein cholesterol (HDL-C) levels” value ([1]; single IV 0.3-18 mg/kg, baseline about 49 mg/dL) was “did not change significantly”, the “Estimated β-phase half-life” value ([2]; single i.v. 0.1 mg/kg) was 16.1 h and the “Estimated β-phase half-life” value ([2]; single i.v. 1.0 mg/kg) was 45.8 h. The “Estimated β-phase half-life” value ([2]; single i.v. 3.0 mg/kg) was 55.9 h, the “Estimated β-phase half-life” value ([2]; single i.v. 10.0 mg/kg) was 83.8 h and the “Estimated β-phase half-life” value ([2]; single i.v. 100.0 mg/kg) was 126 h. For the same molecule, the “Anti-drug antibodies (ADA)” value [3] was “No subject had positive ADA”, the Safety and tolerability [3] was “generally safe and well-tolerated” and the “Changes in LFTs, CK, ECGs, and BP” value ([3]; in most cases considered not related to treatment) was “transient, mild in nature”.

From US20140161821A1, “TREATMENT WITH ANTI-PCSK9 ANTIBODIES” (PFIZER INC., priority 2011, published 2014)
